The values below come from publication PMC12557481.

In data set [1] the target is T1, p53_WT (human, UniProt P04637 1-393). The experiment in a line: EMSA. (Mobility shift assays separate free from complexed probe on a gel.)
In data set [2] the target is T1, p53_WT. Description: AUC.
In data set [3] the target is T1, p53_WT. The experiment in a line: AUC. This is another data set of the same source.

T1 sequence (P04637 whole entry): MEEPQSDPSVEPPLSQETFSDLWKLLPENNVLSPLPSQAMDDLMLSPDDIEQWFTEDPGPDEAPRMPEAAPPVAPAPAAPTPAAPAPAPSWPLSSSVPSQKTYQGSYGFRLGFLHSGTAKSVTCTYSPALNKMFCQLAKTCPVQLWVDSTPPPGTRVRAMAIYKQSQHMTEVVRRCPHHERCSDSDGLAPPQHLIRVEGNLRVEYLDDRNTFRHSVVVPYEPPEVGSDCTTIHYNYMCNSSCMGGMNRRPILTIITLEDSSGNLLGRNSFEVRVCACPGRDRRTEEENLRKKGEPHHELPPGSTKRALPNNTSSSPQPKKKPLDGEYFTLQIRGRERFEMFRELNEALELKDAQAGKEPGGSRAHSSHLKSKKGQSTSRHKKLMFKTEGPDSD

B1: DNAp21 (EMSA) (dsDNA)
DNA 1: GAACATGTCCCAACATGTTGGGCGTCGGCTGTCGGAGGAACATGTCCCAACATGTTG
DNA 2: CAACATGTTGGGACATGTTCCTCCGACAGCCGACGCCCAACATGTTGGGACATGTTC
For the molecule B1, the binding result with p53_WT [1] was “binds”.

B2: DNAp21 (AUC) (dsDNA)
DNA 1: CTCAACATGTTGGGACATGTTCCT
DNA 2: AGGAACATGTCCCAACATGTTGAG
B2: in the data set with p53_WT [2], the binding result is listed as “binds”.

B3: DNAmdm2 (EMSA) (dsDNA)
DNA 1: GGTCAAGTTGGGACACGTCCGGCGTCGGCTGTCGGAGGAGCTAAGTCCTGACATGTCT
DNA 2: AGACATGTCAGGACTTAGCTCCTCCGACAGCCGACGCCGGACGTGTCCCAACTTGACC
Regarding B3, in the data set with p53_WT [1], the binding result is on record as “binds”.

B4: DNAmdm2 (AUC) (dsDNA)
DNA 1: B3 DNA 1
DNA 2: B3 DNA 2
With B4, in the data set with p53_WT [3], the binding result is on record as “binds”.
